We go through one substance from article PMC9720954.

For test [1], the target named is Aβ1-40 monomers (UniProt P05067). Put plainly: ELISA; sandwich ELISA; 1 nM Aβ1-40 monomers or 1 nM Aβ1-42 aggregates held by coated rabbit polyclonal antibodies (C-terminal of Aβ, or Aβ1-42); serial dilutions of the recombinant proteins in 0.1% BSA, 0.05% Tween-20 in PBS, 2 h at RT; goat anti-mouse HRP. On the technique in general: An ELISA detects its analyte on a solid surface through an enzyme-linked reagent.

Test [2] concerns the target Aβ1-42 aggregates (UniProt P05067). The description is as above.
Test [3] concerns the target mouse TfR protein (mouse) (UniProt Q62351).

Sequence of Aβ1-40 monomers (P05067 672-711): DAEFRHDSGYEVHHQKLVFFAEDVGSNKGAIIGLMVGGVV
Sequence of Aβ1-42 aggregates (P05067 672-713): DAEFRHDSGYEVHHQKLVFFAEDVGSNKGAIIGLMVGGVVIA

Turning to sNEP-scFc-scFv8D3 (Fc fusion), the fold weaker binding than the 3D6 antibody control in test [1] stood at 50 fold; in test [2], 100 fold. The substance also showed a brain uptake (%ID per gram brain tissue) 2 h after intravenous injection of the 125I-labelled protein (0.05 mg/kg) in tg-ArcSwe mice, against sNEP without scFv8D3 in test [3] of 20 fold.
